Source: paper PMC10814857, “Functional Classification and Interaction Selectivity Landscape of the Human SH3 Domain Superfamily” (Cells, 2024)

B1: ARHGAP12 SH3 domain, GST cleaved (domain or fragment)
chain: PGQVYIEVEYDYEYEAKDRKIVIKQGERYILVKKTNDDWWQVKPDENSKAFYVPAQYVKEVTR
B2: ARHGAP12 SH3, Q8IWW6 (protein)
chain: KIIPGQVYIEVEYDYEYEAKDRKIVIKQGERYILVKKTNDDWWQVKPDENSKAFYVPAQYVKEVTRKAL

Key:
[1] = biological target: P7, fluorescein-labelled proline-rich peptide from the SOS1 proline-rich domain (human); assay: fluorescence polarisation; 0.2 µM fluorescein-labelled peptide, SH3 domain titrated 0 to 200 µM; 30 mM Tris/HCl pH 7.5, 5 mM MgCl2, 3 mM DTT, 25 °C; quadratic ligand binding equation
[2] = biological target: SOS1 P7 (Homo sapiens), Q07889; assay: fluorescence polarization

| Kd [1] | Kd [2] | Binder |
| --- | --- | --- |
| 0.2 µM |  | B1 |
|  | < 0.5 µM | B2 |
